According to doi:10.1101/2024.11.26.625467:

Target: KS17 N2 NA (neuraminidase head of H3N2 A/Kansas/14/2017) (influenza A virus H3N2 A/Kansas/14/2017)
Test: cryo-EM structure

With “KS17 N2 NA (neuraminidase head of H3N2 A/Kansas/14/2017) (domain or fragment)” the stoichiometry N was 4.
